T1: human Nogo Receptor-1 protein (NgR1) (Homo sapiens, UniProt Q9BZR6)
T1 construct: expressed in transfected cells; host or cells: COS7
T1 sequence (Q9BZR6 27-447): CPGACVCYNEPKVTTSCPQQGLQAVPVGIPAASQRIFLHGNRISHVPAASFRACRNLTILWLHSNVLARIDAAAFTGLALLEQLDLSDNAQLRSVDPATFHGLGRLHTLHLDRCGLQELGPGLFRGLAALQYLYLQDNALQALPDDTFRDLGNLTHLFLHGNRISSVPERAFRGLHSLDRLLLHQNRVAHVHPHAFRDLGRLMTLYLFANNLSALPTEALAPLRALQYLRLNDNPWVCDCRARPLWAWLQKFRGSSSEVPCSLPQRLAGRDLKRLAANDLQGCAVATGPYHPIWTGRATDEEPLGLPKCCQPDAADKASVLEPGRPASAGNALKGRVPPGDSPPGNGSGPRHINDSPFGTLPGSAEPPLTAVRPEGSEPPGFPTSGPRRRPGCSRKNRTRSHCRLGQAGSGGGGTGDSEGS

T2: NgR1 (Homo sapiens, UniProt Q9BZR6)
T2 construct: expressed in transfected cells; host or cells: CHO
T2 sequence (Q9BZR6 27-447): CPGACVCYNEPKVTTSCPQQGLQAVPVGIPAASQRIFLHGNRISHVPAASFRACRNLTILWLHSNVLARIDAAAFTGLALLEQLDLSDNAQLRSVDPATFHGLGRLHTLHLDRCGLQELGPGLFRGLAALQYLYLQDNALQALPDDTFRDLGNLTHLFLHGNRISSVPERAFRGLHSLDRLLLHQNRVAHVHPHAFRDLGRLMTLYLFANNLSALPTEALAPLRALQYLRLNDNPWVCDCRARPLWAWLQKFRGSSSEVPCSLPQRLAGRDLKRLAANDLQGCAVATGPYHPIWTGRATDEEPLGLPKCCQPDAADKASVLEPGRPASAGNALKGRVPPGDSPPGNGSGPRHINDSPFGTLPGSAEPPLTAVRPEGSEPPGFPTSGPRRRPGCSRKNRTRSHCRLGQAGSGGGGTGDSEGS

T3: human Nogo Receptor-1 protein (NgR1) (human, UniProt Q9BZR6 27-447)
T3 construct: whole, on cells; also called NgR1 receptor
T3 sequence (looked up): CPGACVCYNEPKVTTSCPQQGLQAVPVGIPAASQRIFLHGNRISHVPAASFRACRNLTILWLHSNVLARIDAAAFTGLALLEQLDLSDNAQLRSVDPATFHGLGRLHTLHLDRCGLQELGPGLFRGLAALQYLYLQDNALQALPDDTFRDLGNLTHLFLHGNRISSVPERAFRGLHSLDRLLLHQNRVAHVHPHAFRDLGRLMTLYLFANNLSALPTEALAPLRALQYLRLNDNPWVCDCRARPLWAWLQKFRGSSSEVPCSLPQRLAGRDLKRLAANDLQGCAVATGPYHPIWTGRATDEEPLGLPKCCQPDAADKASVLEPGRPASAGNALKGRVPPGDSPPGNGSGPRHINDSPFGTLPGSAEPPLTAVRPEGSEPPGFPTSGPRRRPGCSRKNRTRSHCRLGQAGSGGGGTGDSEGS


Legend:
[1] = molecular target: T1, human Nogo Receptor-1 protein (NgR1); test: Binding of purified fusion protein to NgR1-expressing COS7 cells, colorimetric alkaline phosphatase staining; settings: colorimetric staining based on associated alkaline phosphatase activity
Protocol: Purified fusion protein was assayed for binding to COS7 cells expressing the human Nogo Receptor-1 protein (NgR1). […] Thus, a non-aggregated fusion protein was created that can be used as a reagent to explore the interaction of Nogo-66 with its receptor, or receptors, as well as to identify agents interfering in that interaction (see Example 3).

[2] = Aggregation of purified fusion protein by polyacrylamide gel electrophoresis; format: physicochemical; settings: protein purified from HEK293 conditioned medium by TALON metal affinity chromatography
Protocol: The cDNA (SEQ ID NO:15) of the full-length fusion protein was inserted into the pSMED2 mammalian expression vector and the predicted sequence was confirmed by standard means. The vector was transfected into HEK293 cells and after 48 hours the medium in which the cells were grown was collected (referred to as conditioned medium) (see Example 2). After transfection, the conditioned medium was assayed to determine whether the fusion protein was secreted from the cells. The presence of the fusion protein in the conditioned medium was verified by Western blotting using an antibody against the alkaline phosphatase portion of the fusion. The fusion protein was purified from conditioned medium by TALON (BD/Clonetech) metal affinity chromatography (via the 6 His-tag of the fusion protein) (see Example 2).

NgR1 = molecular target: T2, NgR1; test: Cell-based chemiluminescent SEAP binding assay on CHO cells expressing NGR1; settings: CSPD substrate
Protocol: A cell-based chemiluminescent SEAP (secreted alkaline phosphastase) assay was used to confirm binding between NgR1 and the fusion reporter protein having the amino acid sequence of SEQ ID NO:16.
On Day 1: CHO cells expressing NGR1 are seeded into each well of a Biocoat poly-D-lysine cellware 96-well plate (Becton Dickinson).
1. The medium is removed and cells are washed with 200 μl/well of HBAH (Hanks' balanced salt solution, bovine serum albumin at 0.5 mg/ml) at room temperature.
2. 100 μl of conditioned medium containing the fusion protein (i.e., conditioned medium prior to resin purification in Example 2 above) is added (or 2 μg of purified fusion protein can be added) to each well. The wells are incubated at room temperature for 90 minutes.
3. The medium is removed from the wells. The cells are washed six times with 200 μl HBAH at room temperature. For each wash, the HBAH is incubated with the cells for 5 minutes and the plates gently swirled.
4. The HBAH is removed. The cells are then fixed with 200 μl of fixative buffer (acetone-formaldehyde (60%, 3%, 20 mM HEPES, pH 7.0)) for 15 seconds at room temperature.
5. The cells are then washed three times with HBS (Hanks' balanced salt solution), 5 minutes each time at room temperature.
6. Buffers are equilibrated to room temperature. […]
16. Read the plates on a LMAXII Luminometer (Molecular Devices, Sunnyvale, Calif.). […]

[3] = molecular target: T3, human Nogo Receptor-1 protein (NgR1); test: colorimetric alkaline phosphatase staining of COS7 cells expressing human NgR1
Protocol: Purified fusion protein was assayed for binding to COS7 cells expressing the human Nogo Receptor-1 protein (NgR1). Binding was confirmed by colorimetric staining of NgR1 expressing cells based on associated alkaline phosphatase activity conferred by the fusion protein (see Example 3). Thus, a non-aggregated fusion protein was created that can be used as a reagent to explore the interaction of Nogo-66 with its receptor, or receptors, as well as to identify agents interfering in that interaction (see Example 3).

Row | binding to COS7 cells expressing human NgR1 [1] | binding to NgR1 (NgR1) | binding result [3] | Molecule | aggregation state (bands of higher molecular weight) [2] | aggregation state (bands of higher molecular weight) ([2]; listed as fusion protein)
1 | Binding was confirmed | can bind to NgR1 | – | SEQ ID NO:16: Fusion of signal peptide, human placental secreted alkaline phosphatase portion, enterokinase site, human Nogo-66 domain with Cys47 to Val, His6 tag | does not aggregate | not aggregated
2 | – | – | binds | alkaline phosphatase mutant Nogo-66 domain fusion reporter protein (SEQ ID NO:16) (ligand, Expressed in HEK293 cells and secreted; Used either purified on TALON resin or as conditioned medium; also called fusion protein; secreted alkaline phosphatase mutant Nogo-66 domain fusion reporter protein) TSRSSGIIPVEEENPDFWNREAAEALGAAKKLQPAQTAAKNLIIFLGDGMGVSTVTAARILKGQKKDKLGPEIPLAMDRFPYVALSKTYNVDKHVPDSGATATAYLCGVKGNFQTIGLSAAARFNQCNTTRGNEVISVMNRAKKAGKSVGVVTTTRVQHASPAGTYAHTVNRNWYSDADVPASARQEGCQDIATQLISNMDIDVILGGGRKYMFRMGTPDPEYPDDYSQGGTRLDGKNLVQEWLAKRQGARYVWNRTELMQASLDPSVTHLMGLFEPGDMKYEIHRDSTLDPSLMEMTEAALRLLSRNPRGFFLFVEGGRIDHGHHESRAYRALTETIMFDDAIERAGQLTSEEDTLSLVTADHSHVFSFGGYPLRGSSIFGLAPGKARDRKAYTVLLYGNGPGYVLKDGARPDVTESESGSPEYRQQSAVPLDEETHAGEDVAVFARGPQAHLVHGVQEQTFIAHVMAFAACLEPYTACDLAPPAGTTDAAHPGNDDDDKLSRDKRIYKGVIQAIQKSDEGHPFRAYLESEVAISEELVQKYSNSALGHVNVTIKELRRLFLVDDLVDSLKHHHHHH | – | –
